T1: QK RNA-binding domain (recombinant, purified) (UniProt Q9QYS9 1-213)
T1 sequence: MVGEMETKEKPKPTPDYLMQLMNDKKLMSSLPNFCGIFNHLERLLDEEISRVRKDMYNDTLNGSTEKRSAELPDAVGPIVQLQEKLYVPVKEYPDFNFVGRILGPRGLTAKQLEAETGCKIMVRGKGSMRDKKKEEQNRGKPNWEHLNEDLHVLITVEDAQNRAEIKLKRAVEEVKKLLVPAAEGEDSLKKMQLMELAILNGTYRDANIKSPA

B1: Hnrnpa1 12-nt RNA competitor (ssRNA)
RNA: UGUGACUAAUUG
B2: Hnrnpa1 3' UTR QSBE WT, 30 nt (ssRNA)
RNA: AACUCCAGGACUGUAUUUGUGACUAAUUGU
B3: Plp1 ESE fragments (three overlapping) (ssRNA)
RNA: GCUCAUUCUUUGGAGCGGGUGUGUCAUU
B4: Mbp QSBE (ssRNA)
RNA: CAGUGCCCAUUGGUACACACUAACCUCG

Experiments:
[1] = target: T1, QK RNA-binding domain (recombinant, …); assay: competition; competes with Mbp QSBE; Kc,app value only in figure; EMSA on non-denaturing 5% polyacrylamide slab gel in 1x TBE; binding buffer, salt, pH and temperature not printed (per ref 64)
[2] = target: T1, QK RNA-binding domain (recombinant, …); assay: EMSA and fluorescence polarization; apparent Kd; EMSA on non-denaturing 5% polyacrylamide slab gel in 1x TBE; binding buffer, salt, pH and temperature not printed (per ref 64)
[3] = target: T1, QK RNA-binding domain (recombinant, …); assay: EMSA; three fragments; does not bind with high affinity; EMSA on non-denaturing 5% polyacrylamide slab gel in 1x TBE; binding buffer, salt, pH and temperature not printed (per ref 64)

Row | Binder | Kd [2] | other results
1 | B1 | – | binding result [1]: binds
2 | B2 | 36 ± 2 nM | –
3 | B3 | – | binding result [3]: no binding
4 | B4 | 44 ± 2 nM | –

From PMC3017110
